In paper PMC9733406 (ACS nano, 2022):
Residues, ends and D or L forms follow the SMILES beside them.

Key:
[1] = biological target: MMP-2 targeting peptide (FITC-AA-…); test: MST
[2] = tested on: bovine serum albumin; test: MicroScale Thermophoresis; assay type: binding; conditions: MST, FITC-labelled peptide

Compound	Kd [1]	nonspecific binding to bovine serum albumin [2]
recombinant human MMP-2 (from UniProt P08253 30-660) (enzyme)	82.8 nM	–
CC[C@H](C)[C@H](NC(=O)[C@H](CC(=O)O)NC(=O)[C@H](CC(C)C)NC(=O)[C@H](Cc1ccccc1)NC(=O)[C@H](CCC(=O)O)NC(=O)[C@H](CCC(N)=O)NC(=O)[C@H](CCCCN)NC(=O)[C@@H]1CCCN1C(=O)[C@H](C)NC(=O)[C@H](C)NC(=O)CNC(=O)[C@H](CCCNC(=N)N)NC(=O)[C@H](C)NC(=O)[C@H](C)NC(=S)Nc1ccc2c(c1)C(=O)OC21c2ccc(O)cc2Oc2cc(O)ccc21)C(=O)N[C@@H](CCC(=O)O)C(N)=O [MMP-2 targeting peptide] (HELM PEPTIDE1{[O=C1OC2(c3ccc(O)cc3Oc3cc(O)ccc32)c2ccc(NC(=S)[*:2])cc21].A.A.R.G.A.A.P.K.Q.E.F.L.D.I.E.[am]}$$$$V2.0)	–	does not bind nonspecifically
